The values that follow come from publication doi:10.1101/2025.03.19.644124.

Test in all cases: BLI
In general terms: In BLI a coated tip is dipped into the sample, and binding shifts an interference pattern.

Test [1] deals with biotinylated PpBRCA2-BRC4 peptide (Physcomitrium patens).
For test [2], the target named is biotinylated PpBRCA2-BRC2 peptide (Physcomitrium patens).
Test [3] deals with 6His-PpBRCA2-Cter (amino acids 251 to 391) (Physcomitrium patens).
Test [4] deals with biotinylated PpBRCA2-BRC1 peptide (Physcomitrium patens).

In the case of “recombinant PpRAD51-2, tag-free (natural protein)”, the Kd (commonly the free concentration of one partner at which half of the binding sites on the other are occupied at equilibrium, for simple one-to-one binding) is 400 nM in test [1], 800 nM in test [2], 4.3 nM in test [3] and 400 nM in test [4].
